Data from patent US20150355179A1, “CDKACT BIOSENSORS-FLUORESCENT POLYPEPTIDE TO PROBE THE ACTIVITY OF CDK/CYCLIN KINASES IN VITRO, IN CELLULO AND IN VIVO” (CENTRE NATIONAL DE LA RECHERCHE SCIENTIFIQUE (CNRS), priority 2012, published 2015).

Experiments:
[1] = target: T1, CDK1/Cyclin B (Homo sapiens, UniProt P06493); assay: Real-time fluorescence kinase assay with recombinant CDK1/Cyclin B; assay type: biochemical
T1 construct: made in house; host or cells: E. coli
Protocol: (§1) Fluorescence kinase assays were performed in 96-well plates in a thermostated chamber (Polarstar BMG) at 30° C. in 200 ul phosphate buffer saline, pH 7.2, 150 mM NaCl, in the presence of 5 mM MgCl2, 0.5 mM ATP, except when stated otherwise. The fluorescence of Cy3-labelled CDKACTH1 with recombinant CDK/Cyclin complexes or with cell extracts was monitored over time. Changes in Cy3 fluorescence emission were recorded at 590 nm following excitation at 544 nm. In all experiments, the fluorescence of CDKACTH1-Cy3 alone was substracted from all other values. Data analysis and curve fitting were performed using the GraFit Software (Erathicus Ltd).
(§2) To address the issue of specificity, we asked whether other kinases could phosphorylate and thereby affect the fluorescence of CDKACTH1. We first examined CDK1/Cyclin B and CDK4/Cyclin D (FIGS. 3A and B).

[2] = target: T2, GST-CDK1-Cyclin B (Homo sapiens, UniProt P06493); assay: Radioactive endpoint kinase assay with GST-CDK1-Cyclin B; assay type: biochemical; details: radioactive gamma-ATP, 30 min at 30° C., histone H1 positive control
T2 construct: made in house; host or cells: E. coli

[3] = target: T3, CDK2/Cyclin A (Homo sapiens, UniProt P24941); assay: Real-time fluorescence kinase assay with recombinant active CDK2/Cyclin A; assay type: biochemical
T3 construct: made in house; host or cells: E. coli
Protocol: (§3) In order to characterize CDKACT-H1 biosensor in vitro, we first asked whether it could be used to monitor recombinant kinase activity in a real-time assay.
as §1, §3
In vitro characterization was performed as described in Example 2. […] Assays were performed at 30° C. for 1600s. Fluorescence emission of Cy5 was measured at 675 nm following excitation at 645 nm on Polarstar™ fluorimeter.
Assays were performed at 30° C. for 1600s. Fluorescence emission of Cy3 was measured at 590 nm following excitation at 544 nm on Polarstar™ fluorimeter.

[4] = target: Plk1 (Homo sapiens, UniProt P53350); assay: Real-time fluorescence kinase assay with Plk1 kinase (specificity); assay type: biochemical; details: 25 nM CDKACTH1, 25, 50, 75 nM Plk1
Protocol: as §1, §2

[5] = target: Plk3 (Homo sapiens, UniProt Q9H4B4); assay: Real-time fluorescence kinase assay with Plk3 kinase (specificity); assay type: biochemical; details: 25 nM CDKACTH1, 25, 50, 75 nM Plk3
Protocol: as §1, §2

[6] = target: T4, CDK4/Cyclin D (Homo sapiens, UniProt P11802); assay: Real-time fluorescence kinase assay with recombinant CDK4/Cyclin D; assay type: biochemical; details: dependent on MgCl2/ATP
T4 construct: made in house; host or cells: E. coli
Protocol: as §1, §2

[7] = target: T5, GST-CDK2/Cyclin A (Homo sapiens, UniProt P24941); assay: Radioactive endpoint kinase assay with GST-CDK2/Cyclin A; assay type: biochemical; details: radioactive gamma-ATP, 30 min at 30° C., histone H1 positive control
T5 construct: made in house; host or cells: E. coli
Protocol: In order to characterize […]1 biosensor in vitro, we first asked whether it could be used to monitor recombinant kinase activity in a real-time assay. […] A kinase assay was performed by addition of GST-CDK2/CIV complexed with His-Cyclin A to […]1, in the presence of 0.5 mM ATP and 5 mM MgCl2, and […]1 fluorescence was monitored over time. Phosphorylation of 5 uM […]1 or histone H1 were performed in 50 mM Tris pH 7.5, 5 mM MgCl2, 0.5 mM ATP, and 33P-gamma-ATP for 30 min at 30° C. The reaction was stopped by addition of Laemmli buffer, and samples were run on SDS-PAGE then exposed by autoradiography.

[8] = Solubility of the biosensor after removal of the GST tag; assay type: physicochemical
Protocol: The […]1 biosensor was engineered by cloning residues 367-603 of PBD from Plk1 into the pGex6[…]. […]1 was expressed in E. coli, then purified on High performance glutathione Sepharose in 50 mM TrisHCl, pH 7.4, 150 mM NaCl, then further purified by Gel Filtration chromatography. […] Following purification, […]1 was labelled with a 10fold molar excess Cy3-maleimide and further purified on NAPS columns to remove excess label.

T1 sequence (P06493 whole entry, species assumed): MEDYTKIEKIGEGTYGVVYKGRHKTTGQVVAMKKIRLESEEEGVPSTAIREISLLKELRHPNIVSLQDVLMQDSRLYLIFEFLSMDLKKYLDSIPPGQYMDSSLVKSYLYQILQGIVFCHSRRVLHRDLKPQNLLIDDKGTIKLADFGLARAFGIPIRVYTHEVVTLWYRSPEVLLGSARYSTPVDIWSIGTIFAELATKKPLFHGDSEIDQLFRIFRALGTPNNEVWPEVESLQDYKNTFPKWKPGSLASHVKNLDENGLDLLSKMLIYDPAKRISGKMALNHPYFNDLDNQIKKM
T1 sequence (P14635 whole entry partner, species assumed): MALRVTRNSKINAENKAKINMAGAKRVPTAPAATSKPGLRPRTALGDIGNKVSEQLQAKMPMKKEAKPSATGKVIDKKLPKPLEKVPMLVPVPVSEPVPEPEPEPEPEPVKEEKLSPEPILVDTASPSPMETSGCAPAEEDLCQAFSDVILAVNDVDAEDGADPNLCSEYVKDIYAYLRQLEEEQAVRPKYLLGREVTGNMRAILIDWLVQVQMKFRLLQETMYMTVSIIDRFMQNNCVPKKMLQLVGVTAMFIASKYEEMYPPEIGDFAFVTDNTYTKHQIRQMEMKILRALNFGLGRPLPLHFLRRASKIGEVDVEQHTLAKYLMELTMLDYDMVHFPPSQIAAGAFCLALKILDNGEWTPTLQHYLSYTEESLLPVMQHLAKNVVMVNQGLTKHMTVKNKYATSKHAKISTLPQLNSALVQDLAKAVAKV
T4 sequence (P11802 whole entry, species assumed): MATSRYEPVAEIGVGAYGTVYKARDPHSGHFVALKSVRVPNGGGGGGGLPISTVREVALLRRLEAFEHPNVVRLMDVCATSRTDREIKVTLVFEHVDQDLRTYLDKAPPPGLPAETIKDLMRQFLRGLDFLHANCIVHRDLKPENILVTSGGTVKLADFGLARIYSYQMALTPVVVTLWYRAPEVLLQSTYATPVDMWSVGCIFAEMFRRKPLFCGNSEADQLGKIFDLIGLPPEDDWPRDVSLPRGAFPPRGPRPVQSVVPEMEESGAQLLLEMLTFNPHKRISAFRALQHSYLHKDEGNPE
T4 sequence (P24385 whole entry partner, species assumed): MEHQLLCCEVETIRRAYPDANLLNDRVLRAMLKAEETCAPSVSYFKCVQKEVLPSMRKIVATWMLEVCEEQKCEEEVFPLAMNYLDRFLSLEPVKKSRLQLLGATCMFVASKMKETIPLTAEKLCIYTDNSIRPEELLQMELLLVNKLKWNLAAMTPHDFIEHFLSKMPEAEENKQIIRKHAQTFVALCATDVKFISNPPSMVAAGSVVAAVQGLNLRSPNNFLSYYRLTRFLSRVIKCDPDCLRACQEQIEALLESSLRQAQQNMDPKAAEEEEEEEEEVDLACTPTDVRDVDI
Sequence of Plk1 (P53350 whole entry): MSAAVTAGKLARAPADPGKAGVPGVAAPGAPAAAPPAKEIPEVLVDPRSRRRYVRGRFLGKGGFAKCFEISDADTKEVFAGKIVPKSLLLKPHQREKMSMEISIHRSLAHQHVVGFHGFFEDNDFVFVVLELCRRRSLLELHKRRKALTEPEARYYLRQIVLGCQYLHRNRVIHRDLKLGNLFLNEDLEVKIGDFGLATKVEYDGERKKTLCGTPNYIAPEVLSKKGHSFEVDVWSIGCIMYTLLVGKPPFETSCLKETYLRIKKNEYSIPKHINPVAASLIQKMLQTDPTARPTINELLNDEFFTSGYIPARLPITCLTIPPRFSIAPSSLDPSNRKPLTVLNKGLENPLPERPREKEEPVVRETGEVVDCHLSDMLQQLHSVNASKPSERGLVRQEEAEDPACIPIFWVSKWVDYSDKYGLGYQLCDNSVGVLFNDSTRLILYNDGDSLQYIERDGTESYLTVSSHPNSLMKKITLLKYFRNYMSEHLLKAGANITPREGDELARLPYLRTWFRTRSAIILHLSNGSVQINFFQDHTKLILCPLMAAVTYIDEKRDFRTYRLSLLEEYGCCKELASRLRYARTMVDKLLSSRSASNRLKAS
T2 sequence (P06493 whole entry, species assumed): as the sequence (P06493 whole entry, species assumed) above
T2 sequence (P14635 whole entry partner, species assumed): as the sequence (P14635 whole entry partner, species assumed) above
Sequence of Plk3 (Q9H4B4 whole entry, species assumed): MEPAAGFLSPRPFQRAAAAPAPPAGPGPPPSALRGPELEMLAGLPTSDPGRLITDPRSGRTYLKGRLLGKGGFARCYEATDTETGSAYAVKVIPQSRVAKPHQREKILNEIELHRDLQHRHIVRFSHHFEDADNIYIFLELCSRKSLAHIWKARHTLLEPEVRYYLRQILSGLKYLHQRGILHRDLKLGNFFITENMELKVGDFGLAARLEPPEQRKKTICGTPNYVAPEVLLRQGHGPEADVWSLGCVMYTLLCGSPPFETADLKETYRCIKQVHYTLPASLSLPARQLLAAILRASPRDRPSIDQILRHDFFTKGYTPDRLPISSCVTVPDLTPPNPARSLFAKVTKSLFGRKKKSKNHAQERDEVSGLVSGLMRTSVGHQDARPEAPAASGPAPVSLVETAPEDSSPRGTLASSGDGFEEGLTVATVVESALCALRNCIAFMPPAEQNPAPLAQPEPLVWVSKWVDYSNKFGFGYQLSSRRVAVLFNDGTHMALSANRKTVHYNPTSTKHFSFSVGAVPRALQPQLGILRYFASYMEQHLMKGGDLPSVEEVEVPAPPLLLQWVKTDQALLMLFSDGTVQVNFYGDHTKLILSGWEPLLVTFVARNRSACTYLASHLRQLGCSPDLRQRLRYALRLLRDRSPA

Molecule	phosphorylation of the biosensor by the kinase (fluorescence assay) [1]	sensor concentration giving the optimal response ([1]; for 50-100 nM CDK1/Cyclin B)	phosphorylation of the biosensor in standard radioactive kinase assay [2]	sensor concentration giving the best response ([3]; for 25-50 nM CDK2/CyclinA)	change in CDKACTH1 fluorescence induced by the kinase [4]	change in CDKACTH1 fluorescence induced by the kinase [5]	change in CDKACTH1 fluorescence induced by the kinase [6]	phosphorylation of the biosensor in standard radioactive kinase assay [7]	solubility upon removal of the GST tag [8]	competition assay: effect on phosphorylation of CDKACTH1 ([3]; 25 nM CDKACTH1-Cy3, 25 nM CDK2/Cyclin A, 25 or 100 nM unlabelled CDKACTH1, 25 or 500 nM histone)
CDKACTH1 (protein, left off: a dimerising Fc or GST) GEVVDSHLSDMLQQLHSVNASKPSERGLVRQEEAEDPASIPIFWVSKWVDYSDKYGLGYQLSDNSVGVLFNDSTRLILYNDGDSLQYIERDGTESYLTVSSHPNSLMKKITLLKYFRNYMSEHLLKAGANITPREGDELARLPYLRTWFRTRSAIILHLSNGSVQINFFQDHTKLILSPLMAAVTYIDEKRDFRTYRLSLLEEYGSSKELASRLRYARTMVDKLLSSRSASNRLKASPGAGGTGGLPGGGGCSTPKKAKKL	indeed phosphorylated	10 nM	is phosphorylated	25 nM	did not induce any significant changes	did not induce any significant changes	reminiscent of CDK2/Cyclin A	is phosphorylated	complete precipitation	
unlabelled sensor: CDKACTH1 biosensor without fluorescent label, used as competitive substrate (protein, left off: a dimerising Fc or GST) GEVVDSHLSDMLQQLHSVNASKPSERGLVRQEEAEDPASIPIFWVSKWVDYSDKYGLGYQLSDNSVGVLFNDSTRLILYNDGDSLQYIERDGTESYLTVSSHPNSLMKKITLLKYFRNYMSEHLLKAGANITPREGDELARLPYLRTWFRTRSAIILHLSNGSVQINFFQDHTKLILSPLMAAVTYIDEKRDFRTYRLSLLEEYGSSKELASRLRYARTMVDKLLSSRSASNRLKASPGAGGTGGLPGGGGCSTPKKAKKL										prevented full phosphorylation
